Measured values taken from patent publication US20130323248A1 (SORRENTO THERAPEUTICS, published 2013).

Biological target: T1, human DLL-4 expressed on the surface of CHO-K1 cells (CHO-DLL-4 cells) (human, UniProt Q9NR61 27-685)
T1 construct: whole, on cells; also called cell surface expressed DLL-4; cellular human DLL-4
Test: flow cytometry (HTFC) on CHO-K1 cells stably expressing DLL-4
Procedure: Cells stably expressing DLL-4 were incubated with 1 μg/ml of anti-DLL-4 antibodies as indicated. The binding was analyzed by flow cytometry (HTFC, Intellicyt).
This example illustrates in vitro data for cell binding as part of an initial screen for several disclosed antibodies. CHO-K1 cells stably expressing DLL-4 (CHO-DLL-4 cells) were lifted in enzyme-free Dissociation Buffer and transferred to V-Bottom 96 well-plates (100,000 cells/well). Cells were incubated with anti-DLL-4 Antibodies in FACS buffer (PBS+2% FBS)+NaN₃ on ice for 45 min. After 2 washes in FACS buffer, a 1:1000 dilution of Phycoerythrin conjugated anti-Human IgG (γ-chain specific) was added and incubated for 30 min. Following a final wash, fluorescence intensity was measured on an Intellicyt High Throughput Flow Cytometer (HTFC). Data were analyzed using Graphpad Prism software using non-linear regression fit. Data points are shown as the median fluorescence intensity (MFI) of positively labeled cells +/− Standard Error. EC₅₀ values are reported as the concentration of antibody to achieve 50% of maximal DLL-4 antibodies binding to DLL-4 expressing cells.

Row | binding result | Binder
1 | binds | anti-DLL-4 antibody G6 (antibody, V domains shown, Fully human antibody of an IgG class) VH: EVQLVESGGSLVQPGGSLRLSCAASGFTFSNGWMTWLRQAPGKGLEWVATIKPDGSDTAYVESVKGRFTISRDNAKNLLYLQMDSLRGDDTAVYFCARDLAYNAFDIWGQGTMVTVSS VL: not shown
2 | binds | anti-DLL-4 antibody C3 (antibody, V domains shown, it was detected with anti-human IgG (gamma-chain specific)) VH: QVQLVQSGSELKKPGASVKVSCKASGYTFTSYYMHWVRQVPGQGLEWMGIINPSGGSTSYAQKFQGRVTMTRDTSTSTVYMELSSLRSEDTAVYYCATDYYDSSGYVDFDYWGQGTLVTVSS VL: not shown
